{"source": "patent US20110207796", "proteins": {"B1": {"name": "IKBKB (protein)", "chain": "MSWSPSLTTQTCGAWEMKERLGTGGFGNVIRWHNQETGEQIAIKQCRQELSPRNRERWCLEIQIMRRLTHPNVVAARDVPEGMQNLAPNDLPLLAMEYCQGGDLRKYLNQFENCCGLREGAILTLLSDIASALRYLHENRIIHRDLKPENIVLQQGEQRLIHKIIDLGYAKELDQGSLCTSFVGTLQYLAPELLEQQKYTVTVDYWSFGTLAFECITGFRPFLPNWQPVQWHSKVRQKSEVDIVVSEDLNGTVKFSSSLPYPNNLNSVLAERLEKWLQLMLMWHPRQRGTDPTYGPNGCFKALDDILNLKLVHILNMVTGTIHTYPVTEDESLQSLKARIQQDTGIPEEDQELLQEAGLALIPDKPATQCISDGKLNEGHTLDMDLVFLFDNSKITYETQISPRPQPESVSCILQEPKRNLAFFQLRKVWGQVWHSIQTLKEDCNRLQQGQRAAMMNLLRNNSCLSKMKNSMASMSQQLKAKLDFFKTSIQIDLEKYSEQTEFGITSDKLLLAWREMEQAVELCGRENEVKLLVERMMALQTDIVDLQRSPMGRKQGGTLDDLEEQARELYRRLREKPRDQRTEGDSQEMVRLLLQAIQSFEKKVRVIYTQLSKTVVCKQKALELLPKVEEVVSLMNEDEKTVVRLQEKRQKELWNLLKIACSKVRGPVSGSPDSMNASRLSQPGQLMSQPSTASNSLPEPAKKSEELVAEAHNLCTLLENAIQDTVREQDQSFTALDWSWLQTEEEEHSCLEQAS"}}, "molecular_target": "human alpha-synuclein (wild-type, recombinant)"}
{"protein": "B1", "values": [{"measurement": "in vitro kinase reaction, phosphorylation of alpha-synuclein", "result": "shown to be incapable of directly phosphorylating alpha-synuclein"}]}
